In IntAct's records for PubMed 9418872:

B1: Tyrosine-protein phosphatase non-receptor type 1 (Homo sapiens), P18031 (parent)
chain: MEMEKEFEQIDKSGSWAAIYQDIRHEASDFPCRVAKLPKNKNRNRYRDVSPFDHSRIKLHQEDNDYINASLIKMEEAQRSYILTQGPLPNTCGHFWEMVWEQKSRGVVMLNRVMEKGSLKCAQYWPQKEEKEMIFEDTNLKLTLISEDIKSYYTVRQLELENLTTQETREILHFHYTTWPDFGVPESPASFLNFLFKVRESGSLSPEHGPVVVHCSAGIGRSGTFCLADTCLLLMDKRKDPSSVDIKKVLLEMRKFRMGLIQTADQLRFSYLAVIEGAKFIMGDSSVQDQWKELSHEDLEPPPEHIPPPPRPPKRILEPHNGKCREFFPNHQWVKEETQEDKDCPIKEEKGSPLNAAPYGIESMSQDTEVRSRVVGGSLRGAQAASPAKGEPSLPEKDEDHALSYWKPFLVNMCVATVLTAGAYLCYRFLFNSNT
B2: Tyrosine-protein phosphatase non-receptor type 1 (Homo sapiens), P18031 (parent)
chain: B1 chain
partner: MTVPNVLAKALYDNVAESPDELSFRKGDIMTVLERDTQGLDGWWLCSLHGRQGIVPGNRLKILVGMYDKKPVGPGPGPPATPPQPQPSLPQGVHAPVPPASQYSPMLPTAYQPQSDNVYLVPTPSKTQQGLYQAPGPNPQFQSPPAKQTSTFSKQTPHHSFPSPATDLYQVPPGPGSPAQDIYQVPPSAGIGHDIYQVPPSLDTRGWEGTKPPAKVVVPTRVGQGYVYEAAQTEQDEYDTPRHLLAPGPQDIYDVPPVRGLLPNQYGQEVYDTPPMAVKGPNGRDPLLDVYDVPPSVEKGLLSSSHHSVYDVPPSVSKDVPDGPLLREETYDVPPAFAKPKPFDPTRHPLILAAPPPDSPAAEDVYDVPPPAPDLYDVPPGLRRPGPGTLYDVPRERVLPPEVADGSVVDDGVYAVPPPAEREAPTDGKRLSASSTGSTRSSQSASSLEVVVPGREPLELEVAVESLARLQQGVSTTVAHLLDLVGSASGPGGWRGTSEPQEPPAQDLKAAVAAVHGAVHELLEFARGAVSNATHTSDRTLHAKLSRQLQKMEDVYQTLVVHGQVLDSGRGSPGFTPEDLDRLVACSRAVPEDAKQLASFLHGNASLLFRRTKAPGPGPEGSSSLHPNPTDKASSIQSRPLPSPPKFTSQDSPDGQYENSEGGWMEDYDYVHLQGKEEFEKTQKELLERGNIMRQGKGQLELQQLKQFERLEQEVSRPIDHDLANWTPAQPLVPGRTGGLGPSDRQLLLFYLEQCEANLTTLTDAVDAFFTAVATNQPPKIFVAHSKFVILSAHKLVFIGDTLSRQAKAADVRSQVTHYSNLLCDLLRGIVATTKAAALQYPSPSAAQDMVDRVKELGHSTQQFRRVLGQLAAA
B3: Tyrosine-protein phosphatase non-receptor type 1 (Homo sapiens), P18031 (parent)
chain: B1 chain
partner: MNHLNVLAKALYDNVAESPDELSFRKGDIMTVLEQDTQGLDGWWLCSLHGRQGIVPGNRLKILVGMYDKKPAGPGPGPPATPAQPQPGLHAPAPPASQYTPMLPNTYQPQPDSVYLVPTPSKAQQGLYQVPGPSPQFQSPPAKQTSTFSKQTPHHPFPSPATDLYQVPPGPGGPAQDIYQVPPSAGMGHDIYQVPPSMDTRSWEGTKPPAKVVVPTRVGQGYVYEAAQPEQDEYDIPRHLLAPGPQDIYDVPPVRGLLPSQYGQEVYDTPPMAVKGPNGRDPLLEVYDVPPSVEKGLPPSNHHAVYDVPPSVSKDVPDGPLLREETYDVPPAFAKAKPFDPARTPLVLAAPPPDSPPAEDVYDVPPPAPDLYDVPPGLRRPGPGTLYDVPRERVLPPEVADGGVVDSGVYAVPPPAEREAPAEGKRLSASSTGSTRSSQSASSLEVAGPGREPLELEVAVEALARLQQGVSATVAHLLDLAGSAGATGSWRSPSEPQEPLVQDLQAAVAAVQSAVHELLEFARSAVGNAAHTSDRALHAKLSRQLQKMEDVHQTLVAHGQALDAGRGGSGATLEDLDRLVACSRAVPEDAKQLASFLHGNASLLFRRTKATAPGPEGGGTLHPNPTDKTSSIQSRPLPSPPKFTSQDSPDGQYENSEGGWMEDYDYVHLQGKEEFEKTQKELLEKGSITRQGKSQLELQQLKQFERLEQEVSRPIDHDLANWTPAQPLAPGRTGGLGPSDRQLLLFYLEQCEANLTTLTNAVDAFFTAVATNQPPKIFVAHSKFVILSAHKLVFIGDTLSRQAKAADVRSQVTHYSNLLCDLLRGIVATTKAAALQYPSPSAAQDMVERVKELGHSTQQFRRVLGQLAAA

Variants of: B1
Details: with paxi_mouse Pxn

effect of a mutation on the interaction	Variant
disrupting interaction	P309A
disrupting interaction	P310A

Variants of: B1
Details: with fak1_mouse Ptk2, P34152
fak1_mouse Ptk2, P34152, sequence (P34152 whole entry): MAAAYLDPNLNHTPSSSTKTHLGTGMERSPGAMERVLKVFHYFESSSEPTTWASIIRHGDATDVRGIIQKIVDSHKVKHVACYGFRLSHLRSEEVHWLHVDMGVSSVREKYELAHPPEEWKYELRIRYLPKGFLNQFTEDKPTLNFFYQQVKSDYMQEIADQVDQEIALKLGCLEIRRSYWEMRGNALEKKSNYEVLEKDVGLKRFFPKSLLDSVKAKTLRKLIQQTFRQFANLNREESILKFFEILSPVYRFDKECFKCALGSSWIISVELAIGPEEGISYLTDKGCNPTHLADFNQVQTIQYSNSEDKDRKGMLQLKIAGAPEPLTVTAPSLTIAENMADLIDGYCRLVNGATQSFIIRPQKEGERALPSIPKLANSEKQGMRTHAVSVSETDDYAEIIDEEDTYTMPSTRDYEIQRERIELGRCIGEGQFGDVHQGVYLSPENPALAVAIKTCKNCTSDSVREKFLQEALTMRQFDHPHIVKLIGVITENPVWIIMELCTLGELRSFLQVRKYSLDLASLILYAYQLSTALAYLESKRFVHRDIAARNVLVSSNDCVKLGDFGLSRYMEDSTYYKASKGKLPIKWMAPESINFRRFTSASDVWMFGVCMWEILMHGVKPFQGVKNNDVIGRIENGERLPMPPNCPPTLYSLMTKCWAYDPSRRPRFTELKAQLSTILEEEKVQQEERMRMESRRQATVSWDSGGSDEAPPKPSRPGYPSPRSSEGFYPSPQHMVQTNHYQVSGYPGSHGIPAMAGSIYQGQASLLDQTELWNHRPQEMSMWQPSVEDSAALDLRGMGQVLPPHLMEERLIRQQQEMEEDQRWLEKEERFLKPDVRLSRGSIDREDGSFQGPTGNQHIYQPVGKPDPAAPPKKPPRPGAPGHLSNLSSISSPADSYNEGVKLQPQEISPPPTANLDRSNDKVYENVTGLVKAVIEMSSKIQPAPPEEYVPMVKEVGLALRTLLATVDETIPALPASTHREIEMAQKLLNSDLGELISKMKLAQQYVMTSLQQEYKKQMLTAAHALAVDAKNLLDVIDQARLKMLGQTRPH

effect of a mutation on the interaction	Variant
disrupting interaction	P309A
disrupting interaction	P310A

Variants of: B1
Details: with paxi_mouse Pxn
Remark: another data set of the same source

effect of a mutation on the interaction	Variant
disrupting interaction	C215S

Variants of: B1
Details: with fak1_mouse Ptk2, P34152
Remark: another data set of the same source

effect of a mutation on the interaction	Variant
disrupting interaction	C215S

Variants of: B2
Details: with bcar1_mouse Bcar1, Q61140

effect of a mutation on the interaction	Variant
disrupting interaction	P310A
disrupting interaction	P309A

Variants of: B2
Details: with bcar1_mouse Bcar1, Q61140
Remark: another data set of the same source

effect of a mutation on the interaction	Variant
disrupting interaction	C215S

Variants of: B3
Details: with bcar1_human BCAR1, P56945

effect of a mutation on the interaction	Variant
disrupting interaction	P309A
disrupting interaction	P310A
